± gives the uncertainty stated by the source.
B1: Gamma-crystallin S, residues 96 to 176; numbered along this chain, P22914 (parent)
chain: IQIFEKGDFSGQMYETTEDCPSIMEQFHMREIHSCKVLEGVWIFYELPNYRGRQYLLDKKEYRKPIDWGAASPAVQSFRRI

Variants of: B1
Assay: abundance fitness (aPCA) (normalised: wild type 0, dead -1); higher = more abundant; growth selection in yeast, the domain comes from the species named
Details: Homo sapiens

Variant	abundance fitness
K64C	-0.146 ± 0.16
K64L	-0.07 ± 0.12
K64A	0.034 ± 0.34
K64Y	-0.026 ± 0.29
K64D	-0.118 ± 0.39
K64H	-0.372 ± 0.29
K64W	-0.24 ± 0.2
K64T	-0.164 ± 0.17
K64P	-0.215 ± 0.15
K64Q	-0.063 ± 0.3
K64R	-0.146 ± 0.11
K64V	0.002 ± 0.12
K64I	-0.368 ± 0.35
K64G	0.031 ± 0.13
G69P	-0.294 ± 0.18
G69V	-0.05 ± 0.12
G69I	0.09 ± 0.22
G69M	0.052 ± 0.23
G69R	0.012 ± 0.11
G69S	0.071 ± 0.1
G69C	-0.242 ± 0.21
G69L	0.022 ± 0.13
G69D	-0.155 ± 0.13
G69K	-0.127 ± 0.18

Variant	abundance fitness
G69Q	-0.166 ± 0.19
G69E	0.006 ± 0.21
G69W	-0.018 ± 0.12
N49D	0.004 ± 0.047
N49K	-0.04 ± 0.045
N49W	0.004 ± 0.033
N49L	-0.063 ± 0.028
N49E	0.021 ± 0.033
N49H	-0.004 ± 0.057
N49Y	-0.044 ± 0.063
N49G	0.011 ± 0.023
N49M	-0.001 ± 0.04
N49T	-0.167 ± 0.047
N49P	-0.591 ± 0.069
N49A	-0.018 ± 0.029
N49F	-0.009 ± 0.052
N49R	-0.07 ± 0.027
N49C	-0.078 ± 0.049
N49V	-0.198 ± 0.028
P48T	0.002 ± 0.081
P48E	-0.068 ± 0.089
P48D	-0.038 ± 0.12
P48L	-0.32 ± 0.056
P48M	-0.193 ± 0.099

Variant	abundance fitness
P48C	-0.129 ± 0.13
P48N	-0.096 ± 0.17
P48H	-0.236 ± 0.14
P48V	-0.104 ± 0.049
P48Q	-0.011 ± 0.097
P48F	-0.388 ± 0.17
P48R	-0.067 ± 0.045
P48K	0.006 ± 0.089
P48I	-0.23 ± 0.092
P48G	-0.147 ± 0.058
P48W	-0.712 ± 0.12
P48A	-0.027 ± 0.062
P48S	-0.1 ± 0.066
P48Y	-0.23 ± 0.12
L56S	-0.031 ± 0.17
L56G	0.064 ± 0.17
L56E	0.115 ± 0.2
L56W	0.047 ± 0.14
L56T	-0.04 ± 0.42
L56Q	-0.052 ± 0.17
L56M	-0.228 ± 0.35
L56P	0.166 ± 0.36
L56C	-0.136 ± 0.42
L56K	-0.161 ± 0.43

Variant	abundance fitness
L56V	-0.133 ± 0.44
L56F	0.04 ± 0.26
L56R	0.191 ± 0.27
L56D	0.309 ± 0.29
A70I	0.111 ± 0.18
A70T	-0.037 ± 0.2
A70Q	-0.057 ± 0.14
A70D	-0.017 ± 0.16
A70K	0.169 ± 0.37
A70M	-0.023 ± 0.13
A70R	0.104 ± 0.093
A70G	0.108 ± 0.099
A70V	-0.003 ± 0.11
A70P	0.042 ± 0.3
A70F	-0.025 ± 0.18
A70W	-0.147 ± 0.16
A70E	-0.004 ± 0.093
A70H	0.32 ± 0.27
P65G	-0.009 ± 0.14
P65T	0.059 ± 0.19
P65C	-0.184 ± 0.2
P65Y	0.199 ± 0.3
P65N	-0.284 ± 0.34
P65V	0.141 ± 0.083

Variant	abundance fitness
P65R	0.033 ± 0.11
P65W	-0.024 ± 0.16
P65L	-0.064 ± 0.12
P65E	-0.004 ± 0.28
P65A	0.094 ± 0.11
P65Q	0.045 ± 0.35
P65S	-0.008 ± 0.2
K60E	-0.049 ± 0.27
K60S	0.005 ± 0.13
K60A	-0.001 ± 0.17
K60I	-0.18 ± 0.33
K60L	-0.035 ± 0.13
K60C	0.021 ± 0.23
K60V	-0.242 ± 0.18
K60N	0.111 ± 0.25
K60W	-0.116 ± 0.17
K60M	0.078 ± 0.17
K60G	0.017 ± 0.086
K60D	-0.251 ± 0.49
K60Q	0.064 ± 0.28
K60P	-0.154 ± 0.18
K60R	-0.143 ± 0.14
Y55H	0.218 ± 0.32
Y55S	-0.437 ± 0.18

Variant	abundance fitness
Y55W	0.014 ± 0.18
Y55D	-0.531 ± 0.24
Y55E	-0.425 ± 0.37
Y55F	0.117 ± 0.16
Y55A	-0.152 ± 0.25
Y55L	-0.051 ± 0.21
Y55G	-0.529 ± 0.25
Y55V	-0.128 ± 0.23
Y55M	-0.231 ± 0.25
Y55R	0.055 ± 0.18
Y55K	-0.352 ± 0.29
L47T	-0.285 ± 0.1
L47Y	0.019 ± 0.15
L47W	-0.078 ± 0.049
L47V	-0.667 ± 0.071
Y62V	-0.184 ± 0.16
Y62W	0.281 ± 0.36
Y62G	-0.075 ± 0.34
Y62N	0.002 ± 0.17
Y62M	0.116 ± 0.15
Y62S	-0.129 ± 0.11
Y62T	-0.174 ± 0.28
Y62A	-0.099 ± 0.17
Y62H	0.117 ± 0.33

Variant	abundance fitness
Y62F	0.16 ± 0.43
Y62C	-0.162 ± 0.34
Y62P	0.177 ± 0.29
L57F	-0.311 ± 0.26
L57R	-0.288 ± 0.11
L57T	-0.078 ± 0.16
L57V	0.045 ± 0.16
L57P	-0.517 ± 0.2
L57Q	-0.491 ± 0.37
L57K	-0.414 ± 0.45
L57N	-0.526 ± 0.38
L57S	0.171 ± 0.15
L57C	-0.273 ± 0.33
L57M	0.17 ± 0.18
L57A	-0.039 ± 0.16
L57G	0.026 ± 0.12
W68L	-0.044 ± 0.17
W68Y	-0.425 ± 0.45
W68R	-0.169 ± 0.11
W68S	0.006 ± 0.085
W68G	-0.139 ± 0.11
W68T	0.089 ± 0.2
W68K	-0.067 ± 0.15
W68C	-0.026 ± 0.18

Variant	abundance fitness
W68P	-0.289 ± 0.15
W68E	-0.059 ± 0.14
W68A	-0.167 ± 0.14
W68M	0.131 ± 0.14
E61S	-0.358 ± 0.22
E61L	-0.135 ± 0.26
E61Q	-0.05 ± 0.21
E61W	0.086 ± 0.17
E61M	-0.028 ± 0.41
E61N	0.035 ± 0.45
E61V	0.084 ± 0.23
E61H	-0.205 ± 0.44
R63G	0.092 ± 0.14
R63W	0.065 ± 0.19
R63L	0.133 ± 0.13
R63P	-0.096 ± 0.46
R63E	-0.032 ± 0.14
R63T	-0.102 ± 0.42
R63F	-0.025 ± 0.31
R63S	-0.022 ± 0.16
R63V	-0.118 ± 0.13
R63D	-0.051 ± 0.37
R63Y	-0.158 ± 0.34
R63K	-0.093 ± 0.21

Variant	abundance fitness
R63A	-0.098 ± 0.23
Y50N	-0.567 ± 0.087
Y50R	-0.685 ± 0.033
Y50M	-0.072 ± 0.045
Y50W	-0.036 ± 0.041
Y50A	-0.576 ± 0.03
Y50Q	-0.356 ± 0.047
Y50F	-0.002 ± 0.045
Y50G	-0.421 ± 0.028
Y50S	-0.705 ± 0.041
Y50H	-0.102 ± 0.051
Y50C	-0.047 ± 0.047
Y50E	-0.559 ± 0.03
Y50L	-0.351 ± 0.03
Y50P	-1.14 ± 0.11
Y50T	-0.949 ± 0.081
Y50D	-0.823 ± 0.077
Y50K	-0.884 ± 0.09
Y50V	-1.02 ± 0.056
Y50I	-0.851 ± 0.12
R53V	-0.018 ± 0.038
R53W	-0.257 ± 0.075
R53E	0.036 ± 0.06
R53K	0.005 ± 0.076

Variant	abundance fitness
R53L	-0.059 ± 0.04
R53S	-0.084 ± 0.057
R53A	-0.039 ± 0.045
R53I	-0.163 ± 0.1
R53T	-0.018 ± 0.073
R53G	-0.039 ± 0.03
R53N	-0.168 ± 0.12
R53D	0.048 ± 0.082
R53P	-0.169 ± 0.069
R53Y	-0.129 ± 0.093
R53Q	0.073 ± 0.065
R53F	-0.055 ± 0.072
R53H	-0.036 ± 0.1
R53C	-0.064 ± 0.082
Q54Y	-0.144 ± 0.096
Q54W	-0.279 ± 0.064
Q54F	-0.114 ± 0.087
Q54G	-0.048 ± 0.053
Q54N	0.089 ± 0.089
Q54C	-0.001 ± 0.1
Q54V	-0.045 ± 0.039
Q54P	-0.168 ± 0.08
Q54R	-0.013 ± 0.039
Q54L	-0.121 ± 0.049

Variant	abundance fitness
Q54K	-0.07 ± 0.086
Q54E	-0.067 ± 0.092
Q54T	0.044 ± 0.068
Q54I	-0.045 ± 0.14
Q54H	0.035 ± 0.13
Q54S	0.017 ± 0.059
D67F	-0.036 ± 0.31
D67Q	-0.034 ± 0.28
D67E	0.069 ± 0.26
D67W	0.053 ± 0.18
D67P	-0.154 ± 0.12
D67K	-0.127 ± 0.22
D67S	0.037 ± 0.11
D67G	-0.098 ± 0.19
D67Y	-0.144 ± 0.27
D67T	-0.262 ± 0.35
D67R	0.146 ± 0.12
D67I	0.127 ± 0.3
D67A	0.149 ± 0.2
D67L	-0.321 ± 0.15
R51T	0.1 ± 0.088
R51H	0.013 ± 0.1
R51P	-1.03 ± 0.17
R51V	-0.026 ± 0.048

Variant	abundance fitness
R51W	-0.138 ± 0.065
R51I	-0.04 ± 0.083
R51Y	-0.166 ± 0.12
R51S	0.044 ± 0.056
R51N	-0.264 ± 0.19
R51L	-0.019 ± 0.044
R51G	0.062 ± 0.035
R51A	-0.004 ± 0.057
R51K	0.008 ± 0.082
R51Q	-0.035 ± 0.066
R51D	0 ± 0.11
R51E	0.037 ± 0.072
R51M	0.049 ± 0.077
K59I	0.026 ± 0.2
K59A	0.012 ± 0.099
K59Q	-0.022 ± 0.21
K59M	-0.136 ± 0.31
K59G	-0.133 ± 0.16
K59Y	-0.077 ± 0.19
K59P	-0.229 ± 0.21
K59E	-0.31 ± 0.33
K59T	0.089 ± 0.38
K59W	-0.084 ± 0.18
K59V	0.119 ± 0.15

Variant	abundance fitness
K59H	0.323 ± 0.39
K59C	-0.104 ± 0.18
K59F	-0.107 ± 0.27
K59D	-0.153 ± 0.18
G52Y	-0.95 ± 0.37
G52F	-0.246 ± 0.36
G52T	-0.95 ± 0.19
G52Q	-1 ± 0.13
G52D	-0.788 ± 0.12
G52L	-0.805 ± 0.089
G52R	-0.766 ± 0.084
G52E	-0.949 ± 0.2
G52S	-0.457 ± 0.068
G52K	-0.438 ± 0.12
G52A	-0.741 ± 0.069
G52V	-1.05 ± 0.12
G52W	-1.01 ± 0.17
G52C	-0.631 ± 0.17
G52P	-0.89 ± 0.24
G52M	-0.912 ± 0.13
I66W	0.011 ± 0.19
I66S	0.061 ± 0.46
I66K	-0.432 ± 0.28
I66M	-0.022 ± 0.45

Variant	abundance fitness
I66G	-0.074 ± 0.083
I66T	-0.047 ± 0.22
I66E	0.007 ± 0.16
I66L	-0.008 ± 0.13
I66Q	0.185 ± 0.46
I66Y	-0.2 ± 0.36
I66R	0.03 ± 0.2
I66C	0.131 ± 0.18
I66A	-0.032 ± 0.18
D58W	-0.461 ± 0.17
D58G	0.031 ± 0.12
D58K	0.012 ± 0.34
D58A	0.04 ± 0.12
D58R	0.04 ± 0.11
D58S	0.014 ± 0.16
D58P	-0.342 ± 0.24
D58F	-0.099 ± 0.28
D58T	0.008 ± 0.2
D58V	0.023 ± 0.16
D58Y	-0.067 ± 0.22
D58E	0.085 ± 0.3
D58C	0.054 ± 0.29

Source: the Human Domainome abundance scans (Beltran et al. 2025)
